Measured values as given in PMC10398351, “Structural and molecular insight into antibody recognition of dynamic neoepitopes in membrane tethered MUC1 of pancreatic cancer cells and secreted exosomes” (RSC Chemical Biology, 2023).
Entries after “also recorded” stand apart in the source; their conditions may differ.

What was measured:
[1] = target: MUC1 bearing ST antigen at the immunodominant DTR motif; experiment: SPR affinity of SN-131 with MUC1 bearing ST antigen; format: binding; settings: SN-131 with MUC1 bearing ST antigen at the immunodominant DTR motif; abstract
Protocol: The binding affinity of SN-131 Fab with MUC1 TRD models was measured by using a Biacore 2000 surface plasmon resonance (SPR) instrument (GE Healthcare). Synthetic MUC1 TRD models 2–4 with a C-terminal cysteine residue were immobilized on a CM5 chip (GE Healthcare) by a standard protocol of the maleimide coupling. The SN-131 Fab was injected over the surface of the immobilized MUC1 TRD models 2–4 and three kinetic parameters, the association rate constant (kon), the dissociation rate constant (koff), and the equilibrium dissociation constant (KD) were obtained with BIAevaluation 4.1 software (GE Healthcare) using a bivalent binding model. Isothermal titration calorimetry (ITC) experiments were also carried out to determine the thermodynamic parameters of the interaction between SN-131 and non-glycosylated-/Tn-MUC1 TRDs.7 All experiments and analyses were performed by using nano ITC (TA Instrument) and Nanoanalyze based on as independent model.

PANC-1 cells = experiment: Live cell imaging of Alexa488-conjugated SN-131 on PANC-1 cells; format: cell-based, human; settings: Alexa 488 conjugated SN-131 10 μg mL−1, 2 h at 37 °C
Protocol: PANC-1 cells (5 × 10^4 cells per well) were cultured with 10% FBS and 2 mM L-glutamine on an 8-well imaging plate (Fischer Scientific) for 48 h in 5% CO2 at 37 °C. Then, Alexa 488 conjugated SN-131 (10 μg mL^−1), 10 μM MUC1-5ST (8), or MAG (5 μg mL^−1) dissolved in Opti-MEM medium (gibco) was co-incubated with PANC-1 cells for 2 h in 5% CO2 at 37 °C. Cells were washed with Opti-MEM and stained with Hoechst 33342 (2.5 ng mL^−1 in Opti-MEM) for 30 min. […] The pictures were imaged with 60xlens and the following filter set (Blue: #OP-66843 Excitation 360/40, Emission 460/50, Green: #OP-66836, Excitation 470/40, Emission 535/50, Red: #OP-66837, Excitation 540/25, Emission […]). Imaging pictures were analysed by BZ-II Analyzer software (Keyence, Osaka).

MUC1 TRD [2] = settings: cited from earlier work
From the text: By using a robust synthetic glycopeptide library,[21–24] we have established a straightforward approach to antibodies recognizing cancer-relevant glycopeptidic epitopes modified with aberrant O-glycans, namely “dynamic neoepitopes”, found in the MUC1 TRD (Fig. 2a).[19,20] […] We considered that SN-131 is a highly potential anti-MUC1 antibody because this antibody binds specifically MUC1 TRD having core 1 type O-glycans overexpressed in many cancers including pancreatic cancer but not core 2 type O-glycans found in normal cells. However, the structural and molecular basis of the epitope recognition by SN-131 remain to be fully understood. We needed to investi ...

MUC1 TRD [3] = experiment: Epitope mapping of SN-131 on glycopeptide microarray; format: binding; settings: SN-131 1 µg/mL, 2 h at room temperature, Cy3 labeled anti-mouse IgG
Protocol: 100 mM solutions of the synthetic glycopeptides capped with ketone-linker at the N-terminus (5–9) dissolved in 25 mM sodium acetate buffer (pH 5.0) containing 0.005% Tween-20 (w/v) were robotically printed on plastic slides coated with a copolymer carrying aminooxy-/phosphorylcholine functional groups according to the protocol reported previously.[20,22,24] Detailed conditions for the binding assay are described in the ESI. ^† […]
as Additional Data in Supporting Information. Compounds 3 , 5, and 6 were synthesized previously5,7,8 and available for the present study.
Glycopeptide microarray. 100 mM solutions of the synthetic glycopeptides capped with ketone-linker at N -terminus (5~9) dissolved in 25 mM sodium acetate buffer (pH 5.0) containing 0.005% Tween- 20 (w/v) were robotically printed on plastic slides coated with a copolymer carrying aminooxy-/phosphorylcholine functional groups according to the protocol reported previ ousl y.5,7-9 For the epitope analysis of SN-131, antibody solutions (1 µg/mL) were added to each well of the slides. After incubation for 2 h at room temperature, the slides were rinsed and added with Cy3 labeled anti-mouse IgG polyclonal antibody (1 µg/mL). After washing, fluorescence of the wells were measured using a GlycoStation 1200 system and analysed with the ArrayVision […]
Anti-MU C1 mA b (SN -131). […]

B1: SN-131: anti-MUC1 mAb (clone 1B2, IgG2a) binding MUC1 TRD with Tn, T and ST antigens at the DTR motif (antibody, V domains shown)
VH: QVQLQQSGAELARPGASVKLSCKASGYTFTNYGLSWVKQRTGQGLEWIGENHPGSGIIYHNEKFRGKATLTADKSSSTAYVQLSSLTSEDSAVYFCARSSGTRGFAYWGQGTLVTVSA
VL: DVLMTQTPLSLPVSLGDQASISCRSSQSIVHSNGNTYLEWYLQKPGQSPKLLIYKVSNRFSGVPDRFSGSGSGTDFTLKISRVEAEDLGVYYCFQGSHGPWTFGGGTKLEIK
[1]
  Kd: 1.58 nM
PANC-1 cells
  binding to PANC-1 cell surface MUC1 TRD: binds strongly
MUC1 TRD [2]
  glycoform specificity of binding to MUC1 TRD: does not bind to MUC1 TRD when the threonine residue of this immunodominant region is modified with STn, dST, or core 2-type mature complex O-glycan structures
MUC1 TRD [3]
  binding of SN-131 to MUC1 TRD glycoforms (epitope mapping, in words): binds MUC1 TRD with Tn, T, and ST antigens attached to the immunodominant DTR motif; also recorded: did not bind to non-glycosylated MUC1 TRD
